Data reported in US20140341881A1.

Experiments:
[1] = target: human plasma kallikrein (PK) (human) (UniProt P03952); experiment: cell-based or functional assay
[2] = target: human neutrophil elastase (HNE) (human) (UniProt P08246); experiment: cell-based or functional assay
Chain of human neutrophil elastase (HNE) (human) (P08246 30-247 limits assumed): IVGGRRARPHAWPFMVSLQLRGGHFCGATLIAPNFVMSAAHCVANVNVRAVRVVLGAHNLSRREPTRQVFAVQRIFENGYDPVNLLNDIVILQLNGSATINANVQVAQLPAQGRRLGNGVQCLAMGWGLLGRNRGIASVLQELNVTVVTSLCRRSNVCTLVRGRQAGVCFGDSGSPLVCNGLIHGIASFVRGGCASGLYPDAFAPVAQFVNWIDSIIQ

Chain of human plasma kallikrein (PK) (human) (P03952 20-638 limits assumed): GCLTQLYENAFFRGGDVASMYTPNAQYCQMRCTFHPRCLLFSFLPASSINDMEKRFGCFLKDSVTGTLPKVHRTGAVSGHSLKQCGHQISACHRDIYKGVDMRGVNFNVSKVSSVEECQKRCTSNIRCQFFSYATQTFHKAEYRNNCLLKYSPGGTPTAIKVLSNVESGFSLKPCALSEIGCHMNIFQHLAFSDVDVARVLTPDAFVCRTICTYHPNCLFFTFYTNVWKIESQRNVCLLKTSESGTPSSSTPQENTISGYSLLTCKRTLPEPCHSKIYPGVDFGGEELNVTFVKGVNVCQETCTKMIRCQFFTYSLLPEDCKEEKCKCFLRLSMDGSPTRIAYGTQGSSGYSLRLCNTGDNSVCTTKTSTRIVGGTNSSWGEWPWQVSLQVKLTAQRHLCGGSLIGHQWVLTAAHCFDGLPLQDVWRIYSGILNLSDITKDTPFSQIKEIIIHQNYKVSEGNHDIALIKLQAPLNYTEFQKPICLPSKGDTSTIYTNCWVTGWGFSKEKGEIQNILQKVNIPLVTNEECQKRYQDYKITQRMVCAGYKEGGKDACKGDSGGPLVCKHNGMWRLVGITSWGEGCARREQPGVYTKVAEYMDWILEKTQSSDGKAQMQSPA

% Inhibition [1]: 46%
INHIBITION % [1]: 0%
Percentage inhibition [1]: 46%
% Inhibition [2]: 26%
INHIBITION % [2]: 15%
Percentage inhibition [2]: 16%
Substance: rACTWT (recombinant wild type alpha-1-antichymotrypsin) (from UniProt P01011 24-423)
